US20240417437A1, “Linker Polypeptides” (Trutino Biosciences Inc., priority 2021, published 2024)

Columns and labels:
fibronectin = fibronectin (Homo sapiens, UniProt P02751); test: Fusion protein plate binding assay on fibronectin
Procedure: A similar plate-based assay was developed to interrogate binding of IL-2 fusion variants to fibronectin. 96-well plates were coated with fibronectin (4-10 μg/mL, Sigma) or control BSA for 18-22 hours at room temperature on shaker (350 rpm). After washing, wells were blocked with 2% milk powder in PBS-0.05% Tween 20 or protein-free blocking buffer (Pierce) for 90 min, then fusion proteins were titrated in blocking buffer-0.1% Tween 20, pH 7.5 and/or pH 6, and added for 1 hour at room temperature with shaking. After washing, an anti-mouse IL-2 biotin-labelled detection antibody (JES6-5H4, ThermoFisher) or anti-human IgG HRP conjugate antibody (SouthernBiotech) was added, and binding was detected using Ultra Streptavidin HRP (ThermoFisher). The plate was developed by adding the chromogenic tetramethylbenzidine substrate (Ultra TMB, ThermoFisher). The reaction was stopped by addition of 0.5 M H2SO4, and the absorbance was read at 450-650 nm.

[1] = assay type: binding; settings: for fusion protein binding to heparin: pH 6
Procedure: 96-well plates were coated with 10 μg/mL of Heparin-BSA conjugate (provided by Dr. Mueller, Boerhinger Ingelheim) or control BSA for 18-22 hours at room temperature on shaker (350 rpm). After washing, wells are blocked with 2% milk powder in PBS-0.05% Tween 20 or PBS-0.05% Tween 20/1% BSA for 90 minutes. The fusion proteins were then titrated in either 2% milk powder in PBS-0.05% Tween 20 or 1% BSA/PBS-0.05% Tween 20, pH 7.5 and/or pH 6, and added for 2 hours at room temperature with shaking. After washing, an anti-mouse IL-2 biotin-labelled detection antibody (JES6-5H4, ThermoFisher), anti-6×-His Tag HRP conjugate antibody (Invitrogen, 1 mg/mL, cat #MA1-21315-HRP), or anti-human IgG HRP conjugate antibody (SouthernBiotech) was added, and binding was detected using Ultra Streptavidin HRP (ThermoFisher). The plate was developed by adding the chromogenic tetramethylbenzidine substrate (Ultra TMB, ThermoFisher). The reaction was stopped by addition of 0.5 M H2SO4, and the absorbance was read at 450-650 nm. […] Moreover, when the same pH-dependent heparin binding motif was inserted into different locations of IL-2 fusion proteins, all resulting proteins bound heparin at pH 6 with similar high affinities (FIGS. 4F and 4G). Likewise, similar binding affinities were observed when another heparin targeting sequence was engineered into different sites of IL-2 fusion proteins (FIGS. 4H-4I). […] The heparin binding activity is recovered when a heparin binding motif is engineered into the linker polypeptide-IL-15 fusion protein (Construct WWW). Finally, linker polypeptide-IL-2 fusion proteins engineered with a heparin binding site show about 30-fold enhanced binding to heparin in vitro compared to constructs lacking a heparin binding site (Construct EEE and Construct NNNN vs. Construct AAA and Construct NNN, respectively) as shown in FIG. 4M.

Sequence of fibronectin (P02751 32-2477, species assumed): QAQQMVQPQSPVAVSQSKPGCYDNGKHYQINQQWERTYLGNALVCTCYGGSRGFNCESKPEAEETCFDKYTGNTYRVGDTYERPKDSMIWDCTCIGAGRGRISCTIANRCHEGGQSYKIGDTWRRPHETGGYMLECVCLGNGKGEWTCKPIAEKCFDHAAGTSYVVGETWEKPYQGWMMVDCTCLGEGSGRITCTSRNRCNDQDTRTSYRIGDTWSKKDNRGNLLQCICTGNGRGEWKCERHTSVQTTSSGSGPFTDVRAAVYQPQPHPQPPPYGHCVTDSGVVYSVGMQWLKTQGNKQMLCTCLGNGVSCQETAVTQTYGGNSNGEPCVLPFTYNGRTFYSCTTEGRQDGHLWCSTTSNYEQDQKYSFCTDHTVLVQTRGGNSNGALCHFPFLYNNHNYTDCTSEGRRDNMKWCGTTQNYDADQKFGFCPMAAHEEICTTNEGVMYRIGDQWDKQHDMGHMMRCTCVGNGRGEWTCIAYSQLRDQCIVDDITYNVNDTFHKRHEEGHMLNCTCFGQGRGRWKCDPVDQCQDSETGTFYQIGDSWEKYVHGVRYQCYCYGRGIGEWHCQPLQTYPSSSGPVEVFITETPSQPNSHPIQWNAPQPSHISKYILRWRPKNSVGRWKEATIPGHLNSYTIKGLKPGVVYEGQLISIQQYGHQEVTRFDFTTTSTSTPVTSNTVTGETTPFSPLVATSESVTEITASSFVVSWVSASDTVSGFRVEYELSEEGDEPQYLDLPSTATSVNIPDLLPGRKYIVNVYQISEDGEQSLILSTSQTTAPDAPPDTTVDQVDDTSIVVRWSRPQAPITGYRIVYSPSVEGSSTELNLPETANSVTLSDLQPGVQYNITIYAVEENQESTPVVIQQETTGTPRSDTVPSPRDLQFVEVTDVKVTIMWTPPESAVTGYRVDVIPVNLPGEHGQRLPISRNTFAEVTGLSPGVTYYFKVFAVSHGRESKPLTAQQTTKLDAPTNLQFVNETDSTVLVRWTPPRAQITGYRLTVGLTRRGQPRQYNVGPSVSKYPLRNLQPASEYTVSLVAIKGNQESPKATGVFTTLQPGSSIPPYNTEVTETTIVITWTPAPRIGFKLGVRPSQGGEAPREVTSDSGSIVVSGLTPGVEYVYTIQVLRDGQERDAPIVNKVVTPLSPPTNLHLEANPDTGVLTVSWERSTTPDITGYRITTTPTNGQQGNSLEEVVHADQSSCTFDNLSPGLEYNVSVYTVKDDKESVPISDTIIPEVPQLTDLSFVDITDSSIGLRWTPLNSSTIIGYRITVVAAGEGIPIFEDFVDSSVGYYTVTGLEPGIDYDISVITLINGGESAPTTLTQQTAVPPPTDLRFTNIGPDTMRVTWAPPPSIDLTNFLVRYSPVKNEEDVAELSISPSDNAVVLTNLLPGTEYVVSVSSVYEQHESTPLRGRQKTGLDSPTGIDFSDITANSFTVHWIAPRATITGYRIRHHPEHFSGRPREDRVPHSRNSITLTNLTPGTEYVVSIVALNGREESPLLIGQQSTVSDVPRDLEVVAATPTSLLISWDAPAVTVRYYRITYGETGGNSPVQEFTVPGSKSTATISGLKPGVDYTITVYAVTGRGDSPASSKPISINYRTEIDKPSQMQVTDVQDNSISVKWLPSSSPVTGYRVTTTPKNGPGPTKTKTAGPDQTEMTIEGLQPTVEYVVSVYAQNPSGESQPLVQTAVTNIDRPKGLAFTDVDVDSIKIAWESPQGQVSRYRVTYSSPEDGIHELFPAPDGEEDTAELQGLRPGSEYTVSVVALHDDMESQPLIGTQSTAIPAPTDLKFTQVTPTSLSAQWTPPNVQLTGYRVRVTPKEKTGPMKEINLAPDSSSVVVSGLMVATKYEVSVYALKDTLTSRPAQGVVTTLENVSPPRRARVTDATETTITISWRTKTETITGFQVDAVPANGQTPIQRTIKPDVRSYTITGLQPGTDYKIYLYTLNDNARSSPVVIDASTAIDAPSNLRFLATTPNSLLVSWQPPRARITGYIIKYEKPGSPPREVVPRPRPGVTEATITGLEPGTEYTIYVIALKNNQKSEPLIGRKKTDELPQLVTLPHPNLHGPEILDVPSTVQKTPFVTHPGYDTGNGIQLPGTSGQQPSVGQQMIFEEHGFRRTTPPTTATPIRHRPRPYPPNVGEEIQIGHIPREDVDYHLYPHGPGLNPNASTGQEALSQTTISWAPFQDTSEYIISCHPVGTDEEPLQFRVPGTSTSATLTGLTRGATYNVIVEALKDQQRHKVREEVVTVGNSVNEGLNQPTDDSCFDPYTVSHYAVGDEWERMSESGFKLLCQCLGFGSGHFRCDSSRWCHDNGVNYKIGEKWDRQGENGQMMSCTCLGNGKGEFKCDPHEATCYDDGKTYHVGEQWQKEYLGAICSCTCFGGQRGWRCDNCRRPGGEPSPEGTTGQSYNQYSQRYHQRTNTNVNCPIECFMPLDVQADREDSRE

| Molecule | fusion protein binding to fibronectin (fibronectin; acidic pH (pH 6)) | fusion protein binding to fibronectin (fibronectin; pH 7.5 (neutral)) | EC50 ([1]; acidic pH, read-out: heparin binding EC50) [nM] | heparin binding EC50 value, fold higher than Construct CC [1] | fusion protein binding to heparin [1] | pH preference of heparin binding ([1]; pH 6 vs pH 7.5) |
| --- | --- | --- | --- | --- | --- | --- |
| Construct CC: mIL2-2x(GHHPH)-MMPcs1-2x(G4S)-mIL2Ra(1-215)-muIgG1Fc; pH heparin (protein, Synthetic: Construct CC, mIL2-2x(GHHPH)-MMPcs1-2x(G4S)-mIL2Ra(1-215)-muIgG1Fc; pH heparin) APTSSSTSSSTAEAQQQQQQQQQQQQHLEQLLMDLQELLSRMENYRNLKLPRMLTFKFYLPKQATELKDLQCLEDELGPLRHVLDLTQSKSFQLEDAENFISNIRVTVVKLKGSDNTFECQFDDESATVVDFLRRWIAFCQSIISTSPQGHHPHGHHPHGPLGVRGGGGGSGGGGSELCLYDPPEVPNATFKALSYKNGTILNCECKRGFRRLKELVYMRCLGNSWSSNCQCTSNSHDKSRKQVTAQLEHQKEQQTTTDMQKPTQSMHQENLTGHCREPPPWKHEDSKRIYHFVEGQSVHYECIPGYKALQRGPAISICKMKCGKTGWTQPQLTCVDEREHHRFLASEESQGSRNSSPESETSCPITTTDFPQPTETTAMTETFVLTMEYKGCKPCICTVPEVSSVFIFPPKPKDVLTITLTPKVTCVVVDISKDDPEVQFSWFVDDVEVHTAQTQPREEQFNSTFRSVSELPIMHQDWLNGKEFKCRVNSAAFPAPIEKTISKTKGRPKAPQVYTIPPPKEQMAKDKVSLTCMITDFFPEDITVEWQWNGQPAENYKNTQPIMDTDGSYFVYSKLNVQKSNWEAGNTFTCSVLHEGLHNHHTEKSLSHSPGK | – | – | ~10 | – | bound heparin in a dose-dependent manner and with higher affinity than Construct B | preferentially bound heparin at acidic pH |
| Construct NN: mIL2-2x(SG4)-MMPcs1-2x(GHHPH)-mIL2Ra(1-215)-muIgG1Fc; pH heparin (protein, Synthetic: Construct NN, mIL2-2x(SG4)-MMPcs1-2x(GHHPH)-mIL2Ra(1-215)-muIgG1Fc; pH heparin) APTSSSTSSSTAEAQQQQQQQQQQQQHLEQLLMDLQELLSRMENYRNLKLPRMLTFKFYLPKQATELKDLQCLEDELGPLRHVLDLTQSKSFQLEDAENFISNIRVTVVKLKGSDNTFECQFDDESATVVDFLRRWIAFCQSIISTSPQSGGGGSGGGGGPLGVRGGHHPHGHHPHELCLYDPPEVPNATFKALSYKNGTILNCECKRGFRRLKELVYMRCLGNSWSSNCQCTSNSHDKSRKQVTAQLEHQKEQQTTTDMQKPTQSMHQENLTGHCREPPPWKHEDSKRIYHFVEGQSVHYECIPGYKALQRGPAISICKMKCGKTGWTQPQLTCVDEREHHRFLASEESQGSRNSSPESETSCPITTTDFPQPTETTAMTETFVLTMEYKGCKPCICTVPEVSSVFIFPPKPKDVLTITLTPKVTCVVVDISKDDPEVQFSWFVDDVEVHTAQTQPREEQFNSTFRSVSELPIMHQDWLNGKEFKCRVNSAAFPAPIEKTISKTKGRPKAPQVYTIPPPKEQMAKDKVSLTCMITDFFPEDITVEWQWNGQPAENYKNTQPIMDTDGSYFVYSKLNVQKSNWEAGNTFTCSVLHEGLHNHHTEKSLSHSPGK | – | – | – | – | mimicked the Construct CC binding profile | – |
| Construct Y: mIL2(C140S)-VRIQRKKEKMKET-MMPcs1-2x(G4S)-mIL2Ra(1-215)-muIgG1Fc; heparin (protein, Synthetic: Construct Y, mIL2(C140S)-…-MMPcs1-2x(G4S)-mIL2Ra(1-215)-muIgG1Fc; heparin) APTSSSTSSSTAEAQQQQQQQQQQQQHLEQLLMDLQELLSRMENYRNLKLPRMLTFKFYLPKQATELKDLQCLEDELGPLRHVLDLTQSKSFQLEDAENFISNIRVTVVKLKGSDNTFECQFDDESATVVDFLRRWIAFSQSIISTSPQVRIQRKKEKMKETGPLGVRGGGGGSGGGGSELCLYDPPEVPNATFKALSYKNGTILNCECKRGFRRLKELVYMRCLGNSWSSNCQCTSNSHDKSRKQVTAQLEHQKEQQTTTDMQKPTQSMHQENLTGHCREPPPWKHEDSKRIYHFVEGQSVHYECIPGYKALQRGPAISICKMKCGKTGWTQPQLTCVDEREHHRFLASEESQGSRNSSPESETSCPITTTDFPQPTETTAMTETFVLTMEYKIEGRMDGCKPCICTVPEVSSVFIFPPKPKDVLTITLTPKVTCVVVDISKDDPEVQFSWFVDDVEVHTAQTQPREEQFNSTFRSVSELPIMHQDWLNGKEFKCRVNSAAFPAPIEKTISKTKGRPKAPQVYTIPPPKEQMAKDKVSLTCMITDFFPEDITVEWQWNGQPAENYKNTQPIMDTDGSYFVYSKLNVQKSNWEAGNTFTCSVLHEGLHNHHTEKSLSHSPGK | – | – | – | – | bound heparin in a dose-dependent manner and with higher affinity than Construct B | – |

Continued, in another order:

| fusion protein binding to fibronectin (fibronectin; acidic pH (pH 6)) | fusion protein binding to fibronectin (fibronectin; pH 7.5 (neutral)) | EC50 ([1]; acidic pH, read-out: heparin binding EC50) [nM] | heparin binding EC50 value, fold higher than Construct CC [1] | Molecule | fusion protein binding to heparin [1] | pH preference of heparin binding ([1]; pH 6 vs pH 7.5) |
| --- | --- | --- | --- | --- | --- | --- |
| dose-dependent binding | no binding | – | – | Construct EE: mIL2-SGG-GGWSHW-MMPcs1-2x(G4S)-mIL2Ra(1-215)-muIgG1Fc; pH fibronectin (protein, Synthetic: Construct EE, mIL2-SGG-GGWSHW-MMPcs1-2x(G4S)-mIL2Ra(1-215)-muIgG1Fc; pH fibronectin) APTSSSTSSSTAEAQQQQQQQQQQQQHLEQLLMDLQELLSRMENYRNLKLPRMLTFKFYLPKQATELKDLQCLEDELGPLRHVLDLTQSKSFQLEDAENFISNIRVTVVKLKGSDNTFECQFDDESATVVDFLRRWIAFCQSIISTSPQSGGGGWSHWGPLGVRGGGGGSGGGGSELCLYDPPEVPNATFKALSYKNGTILNCECKRGFRRLKELVYMRCLGNSWSSNCQCTSNSHDKSRKQVTAQLEHQKEQQTTTDMQKPTQSMHQENLTGHCREPPPWKHEDSKRIYHFVEGQSVHYECIPGYKALQRGPAISICKMKCGKTGWTQPQLTCVDEREHHRFLASEESQGSRNSSPESETSCPITTTDFPQPTETTAMTETFVLTMEYKGCKPCICTVPEVSSVFIFPPKPKDVLTITLTPKVTCVVVDISKDDPEVQFSWFVDDVEVHTAQTQPREEQFNSTFRSVSELPIMHQDWLNGKEFKCRVNSAAFPAPIEKTISKTKGRPKAPQVYTIPPPKEQMAKDKVSLTCMITDFFPEDITVEWQWNGQPAENYKNTQPIMDTDGSYFVYSKLNVQKSNWEAGNTFTCSVLHEGLHNHHTEKSLSHSPGK | – | – |
| No significant binding | No significant binding | – | greater than 100 fold | Construct B: mIL2-2x(SG4)-MMPcs1-2x(G4S)-mIL2Ralpha(1-215)-mIgG1Fc; no TME (protein, Synthetic: Construct B polypeptide sequence: m IL2-2x(SG4) MMPcs1 2x (G4S) IL2Ralpha mIgG1 Fc, mIL2-2x(SG4)-MMPcs1-2x(G4S)-mIL2Ralpha(1-215)-mIgG1Fc; no TME) APTSSSTSSSTAEAQQQQQQQQQQQQHLEQLLMDLQELLSRMENYRNLKLPRMLTFKFYLPKQATELKDLQCLEDELGPLRHVLDLTQSKSFQLEDAENFISNIRVTVVKLKGSDNTFECQFDDESATVVDFLRRWIAFCQSIISTSPQSGGGGSGGGGGPLGVRGGGGGSGGGGSELCLYDPPEVPNATFKALSYKNGTILNCECKRGFRRLKELVYMRCLGNSWSSNCQCTSNSHDKSRKQVTAQLEHQKEQQTTTDMQKPTQSMHQENLTGHCREPPPWKHEDSKRIYHFVEGQSVHYECIPGYKALQRGPAISICKMKCGKTGWTQPQLTCVDEREHHRFLASEESQGSRNSSPESETSCPITTTDFPQPTETTAMTETFVLTMEYKGCKPCICTVPEVSSVFIFPPKPKDVLTITLTPKVTCVVVDISKDDPEVQFSWFVDDVEVHTAQTQPREEQFNSTFRSVSELPIMHQDWLNGKEFKCRVNSAAFPAPIEKTISKTKGRPKAPQVYTIPPPKEQMAKDKVSLTCMITDFFPEDITVEWQWNGQPAENYKNTQPIMDTDGSYFVYSKLNVQKSNWEAGNTFTCSVLHEGLHNHHTEKSLSHSPGK | much weaker | – |
